Data published in patent US20120090043A1, “TARGETS FOR RETROVIRUS ASSOCIATED DISEASES” (priority 2009, published 2012).

B1: TEX11: human host interactor protein, Gene ID 56159, expressed from transfected ORF vector (protein)
chain: MISAHCNLRLLCSSDSSASASQVAGTTEVVENLVTNDNSPNIPEAIDRLFSDIANINRESMAEITDIQIEEMAVNLWNWALTIGGGWLVNEEQKIRLHYVACKLLSMCEASFASEQSIQRLIMMNMRIGKEWLDAGNFLIADECFQAAVASLEQLYVKLIQRSSPEADLTMEKITVESDHFRVLSYQAESAVAQGDFQRASMCVLQCKDMLMRLPQMTSSLHHLCYNFGVETQKNNKYEESSFWLSQSYDIGKMDKKSTGPEMLAKVLRLLATNYLDWDDTKYYDKALNAVNLANKEHLSSPGLFLKMKILLKGETSNEELLEAVMEILHLDMPLDFCLNIAKLLMDHERESVGFHFLTIIHERFKSSENIGKVLILHTDMLLQRKEELLAKEKIEEIFLAHQTGRQLTAESMNWLHNILWRQAASSFEVQNYTDALQWYYYSLRFYSTDEMDLDFTKLQRNMACCYLNLQQLDKAKEAVAEAERHDPRNVFTQFYIFKIAVIEGNSERALQAIITLENILTDEESEDNDLVAERGSPTMLLSLAAQFALENGQQIVAEKALEYLAQHSEDQEQVLTAVKCLLRFLLPKIAEMPESEDKKKEMDRLLTCLNRAFVKLSQPFGEEALSLESRANEAQWFRKTAWNLAVQCDKDPVMMREFFILSYKMSQFCPSDQVILIARKTCLLMAVAVDLEQGRKASTAFEQTMFLSRALEEIQTCNDIHNFLKQTGTFSNDSCEKLLLLYEFEVRAKLNDPLLESFLESVWELPHLETKTFETIAIIAMEKPAHYPLIALKALKKALLLYKKEEPIDISQYSKCMHNLVNLSVPDGASNVELCPLEEVWGYFEDALSHISRTKDYPEMEILWLMVKSWNTGVLMFSRSKYASAEKWCGLALRFLNHLTSFKESYETQMNMLYSQLVEALSNNKGPVFHEHGYWSKSD
B2: C20orf141: human host interactor protein, Gene ID 128653, expressed from transfected ORF vector (protein)
chain: MTRLCLPRPEAREDPIPVPPRGLGAGEGSGSPVRPPVSTWGPSWAQLLDSVLWLGALGLTIQAVFSTTGPALLLLLVSFLTFDLLHRPAGHTLPQRKLLTRGQSQGAGEGPGQQEALLLQMGTVSGQLSLQDALLLLLMGLGPLLRACGMPLTLLGLAFCLHPWA
B3: TRIP6: human host interactor protein, Gene ID 7205, expressed from transfected ORF vector (protein)
chain: MSGPTWLPPKQPEPARAPQGRAIPRGTPGPPPAHGAALQPHPRVNFCPLPSEQCYQAPGGPEDRGPAWVGSHGVLQHTQGLPADRGGLRPGSLDAEIDLLSSTLAELNGGRGHASRRPDRQAYEPPPPPAYRTGSLKPNPASPLPASPYGGPTPASYTTASTPAGPAFPVQVKVAQPVRGCGPPRRGASQASGPLPGPHFPLPGRGEVWGPGYRSQREPGPGAKEEAAGVSGPAGRGRGGEHGPQVPLSQPPEDELDRLTKKLVHDMNHPPSGEYFGQCGGCGEDVVGDGAGVVALDRVFHVGCFVCSTCRAQLRGQHFYAVERRAYCEGCYVATLEKCATCSQPILDRILRAMGKAYHPGCFTCVVCHRGLDGIPFTVDATSQIHCIEDFHRKFAPRCSVCGGAIMPEPGQEETVRIVALDRSFHIGCYKCEECGLLLSSEGECQGCYPLDGHILCKACSAWRIQELSATVTTDC
B4: SPAG5: human host interactor protein, Gene ID 10615, expressed from transfected ORF vector (protein)
chain: MWRVKKLSLSLSPSPQTGKPSMRTPLRELTLQPGALTNSGKRSPACSSLTPSLCKLGLQEGSNNSSPVDFVNNKRTDLSSEHFSHSSKWLETCQHESDEQPLDPIPQISSTPKTSEEAVDPLGNYMVKTIVLVPSPLGQQQDMIFEARLDTMAETNSISLNGPLRTDDLVREEVAPCMGDRFSEVAAVSEKPIFQESPSHLLEESPPNPCSEQLHCSKESLSSRTEAVREDLVPSESNAFLPSSVLWLSPSTALAADFRVNHVDPEEEIVEHGAMEEREMRFPTHPKESETEDQALVSSVEDILSTCLTPNLVEMESQEAPGPAVEDVGRILGSDTESWMSPLAWLEKGVNTSVMLENLRQSLSLPSMLRDAAIGTTPFSTCSVGTWFTPSAPQEKSTNTSQTGLVGTKHSTSETEQLLCGRPPDLTALSRHDLEDNLLSSLVILEVLSRQLRDWKSQLAVPHPETQDSSTQTDTSHSGITNKLQHLKESHEMGQALQQARNVMQSWVLISKELISLLHLSLLHLEEDKTTVSQESRRAETLVCCCFDLLKKLRAKLQSLKAEREEARHREEMALRGKDAAEIVLEAFCAHASQRISQLEQDLASMREFRGLLKDAQTQLVGLHAKQEELVQQTVSLTSTLQQDWRSMQLDYTTWTALLSRSRQLTEKLTVKSQQALQERDVAIEEKQEVSRVLEQVSAQLEECKGQTEQLELENSRLATDLRAQLQILANMDSQLKELQSQHTHCAQDLAMKDELLCQLTQSNEEQAAQWQKEEMALKHMQAELQQQQAVLAKEVRDLKETLEFADQENQVAHLELGQVECQLKTTLEVLRERSLQCENLKDTVENLTAKLASTIADNQEQDLEKTRQYSQKLGLLTEQLQSLTLFLQTKLKEKTEQETLLLSTACPPTQEHPLPNDRTFLGSILTAVADEEPESTPVPLLGSDKSAFTRVASMVSLQPAETPGMEESLAEMSIMTTELQSLCSLLQESKEEAIRTLQRKICELQARLQAQEEQHQEVQKAKEADIEKLNQALCLRYKNEKELQEVIQQQNEKILEQIDKSGELISLREEVTHLTRSLRRAETETKVLQEALAGQLDSNCQPMATNWIQEKVWLSQEVDKLRVMFLEMKNEKEKLMIKFQSHRNILEENLRRSDKELEKLDDIVQHIYKTLLSIPEVVRGCKELQGLLEFLS
B5: TRAF2: human host interactor protein, Gene ID 7186, expressed from transfected ORF vector (protein)
chain: MAAASVTPPGSLELLQPGFSKTLLGTKLEAKYLCSACRNVLRRPFQAQCGHRYCSFCLASILSSGPQNCAACVHEGIYEEGISILESSSAFPDNAARREVESLPAVCPSDGCTWKGTLKEYESCHEGRCPLMLTECPACKGLVRLGEKERHLEHECPERSLSCRHCRAPCCGADVKAHHEVCPKFPLTCDGCGKKKIPREKFQDHVKTCGKCRVPCRFHAIGCLETVEGEKQQEHEVQWLREHLAMLLSSVLEAKPLLGDQSHAGSELLQRCESLEKKTATFENIVCVLNREVERVAMTAEACSRQHRLDQDKIEALSSKVQQLERSIGLKDLAMADLEQKVLEMEASTYDGVFIWKISDFARKRQEAVAGRIPAIFSPAFYTSRYGYKMCLRIYLNGDGTGRGTHLSLFFVVMKGPNDALLRWPFNQKVTLMLLDQNNREHVIDAFRPDVTSSSFQRPVNDMNIASGCPLFCPVSKMEAKNSYVRDDAIFIKAIVDLTGL
B6: C16orf33: human host interactor protein, Gene ID 79622, expressed from transfected ORF vector (protein)
chain: MDVFQEGLAMVVQDPLLCDLPIQVTLEEVNSQIALEYGQAMTVRVCKMDGEVMPVVVVQSATVLDLKKAIQRYVQLKQEREGGIQHISWSYVWRTYHLTSAGEKLTEDRKKLRDYGIRNRDEVSFIKKLRQK

Tests used:
[1] = test system: HIV-1 LTR promoter transactivation by HIV-1 Tat; assay: Transactivation assay, HIV-1 LTR luciferase reporter with HIV-1 Tat; type: cell-based; conditions: HEK293 cells co-transfected with pHIV1LTR-Luc, HIV-1 Tat and the human ORF; relative luciferase activity 24 h post-transfection; positive if >=2 or <=0.5 and p<0.05
From the text: The plasmids pHIV1LTR-Luc or pHTLV1LTR-Luc containing a luciferase reporter gene under the control of the HIV-1 or HTLV-1 LTR promoters and plasmids expressing either HIV-1 Tat or HTLV-1 Tax and each human ORF found to interact with viral proteins were transfected into 10^4 HEK293 cells using the calcium phosphate method. Twenty-four hours post-transfection, cells were washed three times with PBS, lysed and luciferase activities determined from two independent transfection experiments in triplicate. We computed a paired t-test to assess the difference of the means between samples with and without the human interactor. For a trial to be considered positive, the relative luciferase activities has to be >=2 or <=0.5, and the p-value of the t-test<0.05.
Many HIV/HTLV-human interactions in our data set (130/212) involved the retroviral transactivator proteins HTLV-1 Tax (57/212), HTLV-2 Tax2 (49/212), HIV-1 Tat (10/212) and HIV-2 Tat (14/212). Human proteins interacting with viral transactivators likely influence Tat or Tax transactivation. Expression vectors encoding human ORFs and HIV-1 Tat or HTLV-1 Tax proteins were tested in a transactivation reporter assay against reporter plasmids harboring HIV-1 or HTLV-1 viral promoter sequences cloned upstream of the luciferase reporter gene. In the controls Tat or Tax respectively activated HIV or HTLV LTR-directed gene expression. Co-transfection of interacting human ORFs identified 71 proteins (54% of the 131 human targets in our data set) that regulated HIV (26.7% of targets), HTLV (37.4% of targets) or both (9.9% of targets) LTR promoter activation by Tat or Tax (see Tables 7 and 8; Table 13 below containing quantitative data on the regulation of transactivation). Wherever not expressly specified, constructs used herein were generally made by sub-cloning entry clones from the ORFeome V3.1 into suitable destination vectors.

[2] = test system: HTLV-1 LTR promoter transactivation by HTLV-1 Tax; assay: Transactivation assay, HTLV-1 LTR luciferase reporter with HTLV-1 Tax; type: cell-based; conditions: HEK293 cells co-transfected with pHTLV1LTR-Luc, HTLV-1 Tax and the human ORF; relative luciferase activity 24 h post-transfection; positive if >=2 or <=0.5 and p<0.05

Molecule | HIV_LTR transactiv. [1] [fold change] | HTLV_LTR transactiv. [2] [fold change]
B1 | 4.41 | 
B2 | 0.35 | 2.80
B3 | 2.87 | 
B4 | 0.16 | 
B5 | 0.22 | 
B6 | 2.50 | 
